The nanobody polyreactivity screen of Harvey et al. (2022)

Assay: yeast display, Sf9 membrane polyspecificity reagent, FACS + sequencing; frameworks hold sequencing errors
Method in brief: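 Genes from sorted yeast were amplified by colony PCR, read by MiSeq 2 × 250 sequencing and filtered on CDR length. These cells carried a synthetic nanobody library in Saccharomyces cerevisiae BJ5465 and were sorted by FACS into low and high (top ~1%) gates on anti-HA and streptavidin fluorescence. Polyreactivity is labelled according to the gate of origin.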

Sequence	polyreactivity (PSR sort gate)
QGQLVESGGGLVQAGGRLRLSCAAAGGIFYSNRMGWYRQATGKEREMVAAITGGDITDYADSVKGRFTISRDNAKNTDYLQMNSLKPEDTAVYYCAGESNPPDYGPRFGSWGQGTQVSVSS	low polyreactivity
QVQLVESGGGLVQAGGSLRLSCAAYGNTFYRNAMGWYRQAPGKERELVAAITFSTGRTYYADSVKGRFTISRDNAKNTVYLQLNSLKPEDTAVYYCAAFYRGGDYWGQGTQVTVSS	high polyreactivity
QVQLVESGGGLVQAGGSLRLSCAASGRTIDHYAMGWYRQAPGKDRELVAAISTTGGSTYYADSVKGRFTISRDNAMNTVYLQMNSLKPEDTAVYFCAARGLRTGGYWGQGTQVTVSS	high polyreactivity
QVQLVESGGGLVQAGGSLRLSCAASGSTFVRNAMGWYRQAPGKERELVAAIRWRSGSTYYADSVKGRFTISRDNAKNTVYFQMNSLKPEDTAVYYCAVKGLGKMNYWGQGTQVTVSS	high polyreactivity
QVQLVESGGGLVQAGGSLRLSCAASGIIFDGNAMGWYRQAPGKERELVASITSDSSTNYADSVKGRFTISRDNAKNTVYLQMNSLKPEDTAVYYCAADHWIAPRRDYWGQGTQVTVSS	low polyreactivity
QVQLVESGGGLVQAGGSLRLSCAASGTFSYYAMGWYRQAPGKERELVATISWSGDSTYYADSVKGRFTISRDNAKNTVYLQMNSLNPEDTAVYYCNADHFQWGAGYDYWGQGTQVTVSS	low polyreactivity
QVQLVESGGGLVQAGGSLRLSCADSGRIYYSNAMGWSRQAPGKEREWVAAISRSGVRTYYADSVKGRYSISRDNAKNTVYLQKNSLKPEDTADYYCAAVIYGTTPQDEYDYWGQGTQVTVSS	low polyreactivity
QVQLVESGGGLVHAGGSLRISCAASGRTFQRNAMGWYRQAPGKERELVAAISGGGSTYYADSVKGRFTISRDNAKNTVYLQMNSLKPEDTAVYYCAASSATRLYYFSRGYDYWGQGTQVTVSS	low polyreactivity
QVQLVESGGGLVQAGGSLRLSCAASGRTFKYNAMGWSRPAPGKERELVAAISWSGGRTYYADSVKGRFTISRDNAKNTVYLQMNSLKPEDTAVYYCAAGVFKKYRPSGRYYYWGHGTQVTVSS	high polyreactivity
QVQLVESGGGLVQAGGSLRLSCAASGSTFNRYAMGWYRQAPGKERELVASISCSGGASTYYADSVKGRFTISRDNAKNTVYLQMNSLKPEDTAVYYCAVSRDSYGGKGSVLYDYWGQGTQVTVSS	low polyreactivity
QVQLVESGGGVVQAGGRLRLSCSASGRTFPWYAMGWSRQEPGKEREVVAAITQSGGSTYYADSVKGRFTISRDNANNTVYLQMNSLKPEDTAGFYCAVASVNTVFYGQDHYYYDYGYWGQGTHVTVSS	low polyreactivity
QVQLVESGGGLVQAGGSLRLSCADSGRIFSPNAMGWYRQAPGKETELVASISSAGSTNYADSVKGRFTISRDNAKNTVYLQMNSLKPEDTAFYYCAADYYGYWLSVHAWGAVTFDYWGQGTQVTVSS	low polyreactivity
QVQHVESGGGLVQSGGSLRLSCAASGRIFDYNAMGWSRQAPGKERELVAAITSSSGSSTYYADSVKGRFTISRDNAKNTVYLQMNSLIPVDTAVYYCNAGGSDIYLSPFDYWGQGTQVTVSS	low polyreactivity
QVQLVESGGGLVQAGGSLRLSCAASGSIFERNAMGWYRQAPGKERELVAAISDDDGSTYYADSVKGRFTISRDNAKNTVYLQMNSLKPEDTAVYYCNAYSHFGSFYPFDYWGQGTQVTVSS	low polyreactivity
QVQLVESGGGLVQAGGSLRLSCAASGYIFPKNAMGGYRQAPGKERELVAAITGSGGSTYYADSVKGRFTISRDNAKNTVYLQMISLKPEDTAVYYCAKRSWFEYDYWGQGTQVTVSS	low polyreactivity
QVQLVESGGGLVQAGGSLRLSCSASGIIFRSYAMGWYRQAPGKERELVAAITGGGTTNYADSVKGRFTISRDNAKNTVYLQMNRLKPEDTAVYYCNAGLDWFWFNEMDYWGQGTQVTVSS	low polyreactivity
QVQLVESGGGLDQAGGSLRLTCAASGSIFRWYAMGWYRQAPGKERELVAAISRGASTNYADSVKGRFTISRDNAKNTVYLKMNSLKPEDTAVYFCAKRTTRLATYDYWGQGTQVTVSS	high polyreactivity
QVQLVESGGGLVQAGGSLRLSCAASGRIIGRYVMGWYRQAPGKERELVAAITRGGSTNYADSVKGRFTISRDNAKNTVYLQMNSLKPEDTAVYYCARAYSTVNRYSMYYWGQGTQVTVSS	high polyreactivity
QVQLVESVVGLVQAGGSLRLSCAASGRIFFAYTMGWYRQAPGKERELVAAISSSGSTYYADSVKGRFTISRDNAKNTVYLQMNSLKPEDTAVYYLRVQRRAYRYDYWGQGTKVTVSS	high polyreactivity
QVQLVESGGGLVQAGGSLRLSCAASGSTFSYYPMGWYRQAPGKERELVATISKRGGTTSYADSVKGRFTISRDNAKNTVYLQMISLKPEDTAVYYCAARYSKVHYAYDYWGQGTQVTVSS	high polyreactivity
QVQLVESGGGLVQAGGSLRLSCAASGRISYLYTMGWYRQAPGKERELVAAIRWRDGSTYYADSVKGRFTISRDNAKNTVYLQMNSLKPEDTAVYYCASTPVGFYWYDYWGQGTQVTVSS	low polyreactivity
QVQLVESGGGLVQAGGSLRLSCAASGYIFYDNAMGWYRQAPGKERELVAAISASGGDTYYADSVKGRFTISRDNAKNTVYLQMNSLKPEDTAVYYCAADLITYAMEFWGQGTQVTVSS	low polyreactivity

Sequence	polyreactivity (PSR sort gate)
QVQLVESGGGLVQAGGSLRLSCAASGRTFVTNAMGWYRQAPGKERELVAAISSSGGSTYYADSVKGRFTISRDNAKNTVFLQMNSLKPEDTAVYYCAVGGQTKGQYDYWGQGTQVTVSS	low polyreactivity
QVQLVESGGGLVQAGGSLRLTCAASGRILGRNAMGWYRQAPGKEREFVAGISYSGTSTYYADSVKGRFTISRDNAKNTVYLQMNSLKPEDTAVYYCNVKNQVYRRYYYWGQGTQVTVSS	high polyreactivity
QVQLVESGGGLVQAGGSLRLSCAASGSTFTGYAMGWYRQAPGKEREMVAAISSDGITKYADSVKGRFTISRDNAKYTVYLQMNSLKQEDTAVYYCYAPRGSRRSYRRTEYYYWGQGTQVTVSS	high polyreactivity
QVQLVESGGGLVQAGGSLRLSCAASGRIFGFNMGWYRQAPGKERELVAAINSGGGTYYADSVKGLFTISRDNAKNTVYLQMNSLKPEYTAVYYCNARFRFRLGQYRYDYWGQGTQVTVSS	high polyreactivity
QVQLVESGGGLVQAGGSLRLSCAASGITFWGYAMGWYRQAPGKEREFVARINWSGGRTYYAESVKGRFTISRDNAKNTVYLQMNSLKPEDTAVYYCAATSLIYCYRTYYYWGQGTQVTVSS	high polyreactivity
QVQLVESGGGLVQAGGSLPLSCAASGSNFWRNALGWYRQAPGKERELVAAISGSGGSTYYADSVKGRFTISRDNAKNTVYLQMNSLKPEDTAVYYSYVSRMDYWGQGTQVTVSS	high polyreactivity
QVQLVESGGGLVQAGGSLRLSCAASGRIFDIYTMGWYRQAPGKERELVASITKRGGSTYYADSVKGRFTISRDNAKNTVYLQMNSLKPEDTAVYYCNAVYSWYRRYGLEGYWGQGTQVTVSS	high polyreactivity
QVQLVESGGGLVQAGGSLRLSCAASGFTFTSNVMGWYREAPGKEWELVADISASDGRTYYADSVKGRFTISRDNAKNTVYLQMNSLKREDTAVYYCNVSSRRLRGLDYWGQGTQVTVSS	low polyreactivity
QVQLVESGGGLVQAGGSLRLSCAASGSTFPYYDMGWYRQAPGKERELVAAISWSGDSTYYADSVKGRFTISRDNAKNTVYLQMKSLKAEDTAVYYCNADGKAGGDYDYWGQGTQVTVSS	low polyreactivity
QVQLVESGGGLVQAGGSLRLSCAASGSIFAYYAMGWYRPAPGKERELVAAITVSGGRTNYADSVKGRFTISRDNAKNTVYLQMNSLKPEDTAVYYCAADTYSYWYARYDYWGQGTQVTVSS	high polyreactivity
QVQLVESGGGLVQAGGSLRLSCAASGGIFSGYAMGWYRQAPGKERELVAAISRRGGSTYYADSVKGRFTISRDNAKNTVYLQMNSLKPEDTAVYYFAKAYPYTCGQVTMYYWGQGTQVTVSS	high polyreactivity
QVQLVESGGGLVQAGGSLRLSCAASGRTFGGNAMGWYRQAPGKERELVAGINISGGSTNYADTVKGRFTISRDNAKNTVYLQMNSLKPEDTAVYYCNADTAVYAWDDDYWGQGTQVTVSS	low polyreactivity
QVQLVESGGGLVQAGGSLRLSCAASGFIFGVYDMGWSRQAPGKERELVAAIDSVGSTYYADSVKGRFTISRDNAYNTVYLQMNSLKPEDTAVYYCAKDGSYQAYGYWGQGTQVTVSS	low polyreactivity
QVQLVESGGGLVQAGGSLRLSCAASGFRLNAMGWYRQAPGKERELVAAITASGGSTYYADSVKGRFTISRDNAKNTVYLQMNSQKPEDTAVYYCARYHPVRGYNYWGQGTQVTVSS	high polyreactivity
QVQLEESGGGLVQAGGSLRLSCAASGIIFIDYAMGWYRQAPGKERELVAAISNGGSTYYADSVKGSFTISRDNAKNTVYLQMNSLKPEDTEVYYCAAGGALASHWSKKLYDYWGQGTQVTVSS	low polyreactivity
QDQIVESRGRLVQAGGSLRLSCAASGRTFKPYAMGWYRQAPGKERELVARISGSGGSTYYADSVKGRFTISRDNAKNTVYLQMNSLKPEDTAVYDCATTPYYWFYYWGQGTQVTVSS	low polyreactivity
QVQLVESVRGLFQAGGSLRLSCAASGFTFYIYDMGWYRQAPGTERELVAAITWSGGRTYYADSVKGRFTISRDNAKNTVYFQMNSLKPEDTAVYYCAASYPGLSFHKYEYWGQGTQLTVSS	high polyreactivity
QDQLVESVGGLVQAGGSLRLSCAASGSIFVRYAMGWYRQAPGKERELVAAISSDGNTYYADSVKGRFTISRDNAKNTVYLQMNSLKPEDTAVYYCAAKTRSRYYWGQGTQVTVSS	high polyreactivity
QVQLEESGGGLVQAGGSLRLSCAASGFIFYIYAMGWYRQAPGKERELVAAITSGGSTNYADSVKGRFTITRDNAKNTVYLQMNSLKPEDTAVYYCAADSYYGYDYWGQVTQVTVSS	low polyreactivity
QVQLVESGGGLVQAGGSIRLSCAASGRTFSKYTMGWYRQAPGKERELVAVISRSGTRTYYADSVKGRFTISRDNAKNTVYLQMNSLKAEDTAVYYCAAKDERRSFGMGYWGQGTHVTVSS	high polyreactivity
QVQLVESGGGLVQAGGSLRLSCAASGSTFSYYGMGWYRPAPGKERELVAAIDYSGDSTYYADSVKARFTISRDNAKNTVYLQMNSLKPEDTAVYYCAADDYPWNRYEYWGQGTQVTVSS	low polyreactivity
